The results in this text go back to publication PMC8486240.

The target of series [1] is T1, PpbHLH1 (Prunus persica, UniProt M5W438 1-344). As to the kind of experiment: EMSA. For orientation: A gel shift assay detects complexes by their altered migration in electrophoresis.
In series [2] the target is T1, PpbHLH1. As to the kind of experiment: competition.

B1: Mutant-Probe1 (dsDNA)
DNA 1: TGAAATGATGATAAGAGTGGAGATATATGGCCTGGAAAAC
DNA 2: GTTTTCCAGGCCATATATCTCCACTCTTATCATCATTTCA
With B1, the binding result in series [1] is listed as “no binding”.

B2: Probe1 unlabelled (cold competitor) (dsDNA)
DNA 1: TGAAATGATGATAAGCACATGGATATATGGCCTGGAAAAC
DNA 2: GTTTTCCAGGCCATATATCCATGTGCTTATCATCATTTCA
B2: in series [2], the binding result is on record as “binds”.
